Results published in the supplement of paper PMC11246515.
± gives the standard deviation of the averaged measurements.

Experiment: total protein half-life in vivo (active degradation + dilution); higher = more stable protein
[1] = E. coli NCM3722 delta-clpP delta-lon delta-hslV, growth: N-lim chemostat, doubling time 6 h
[2] = E. coli NCM3722 delta-clpP, growth: N-lim chemostat, doubling time 6 h
[3] = E. coli NCM3722 delta-hslV, growth: N-lim chemostat, doubling time 6 h
[4] = E. coli NCM3722 delta-lon, growth: N-lim chemostat, doubling time 6 h
[5] = E. coli NCM3722 delta-smpB, growth: N-lim chemostat, doubling time 6 h
[6] = wild type E. coli NCM3722, growth: C-lim chemostat, doubling time 3 h
[7] = wild type E. coli NCM3722, growth: C-lim chemostat, doubling time 6 h
[8] = wild type E. coli NCM3722, growth: C-lim chemostat, doubling time 12 h
[9] = wild type E. coli NCM3722, growth: N-lim chemostat, doubling time 6 h
[10] = wild type E. coli NCM3722, growth: N-lim chemostat, doubling time 12 h
[11] = wild type E. coli NCM3722, growth: P-lim chemostat, doubling time 6 h
[12] = wild type E. coli NCM3722, growth: P-lim chemostat, doubling time 12 h

MELYLDTSDVVAVKALSRIFPLAGVTTNPSIIAAGKKPLDVVLPQLHEAMGGQGRLFAQVMATTAEGMVNDALKLRSIIADIVVKVPVTAEGLAAIKMLKAEGIPTLGTAVYGAAQGLLSALAGAEYVAPYVNRIDAQGGSGIQTVTDLHQLLKMHAPQAKVLAASFKTPRQALDCLLAGCESITLPLDVAQQMISYPAVDAAVAKFEQDWQGAFGRTSI
total protein half-life in vivo [1]: 4.96 ± 0.38 h | total protein half-life in vivo [2]: 4.345 ± 0.017 h | total protein half-life in vivo [3]: 4.474 ± 0.0021 h | total protein half-life in vivo [4]: 4.44 ± 0.26 h | total protein half-life in vivo [5]: 4.3899 ± 0.004 h | total protein half-life in vivo [6]: 2.703 ± 0.021 h | total protein half-life in vivo [7]: 5.36 h | total protein half-life in vivo [8]: 8.19 ± 0.81 h | total protein half-life in vivo [9]: 3.81 ± 0.38 h | total protein half-life in vivo [10]: 7.04 ± 2.2 h | total protein half-life in vivo [11]: 5.72 ± 0.61 h | total protein half-life in vivo [12]: 10 ± 0.64 h

MPHSYDYDAIVIGSGPGGEGAAMGLVKQGARVAVIERYQNVGGGCTHWGTIPSKALRHAVSRIIEFNQNPLYSDHSRLLRSSFADILNHADNVINQQTRMRQGFYERNHCEILQGNARFVDEHTLALDCPDGSVETLTAEKFVIACGSRPYHPTDVDFTHPRIYDSDSILSMHHEPRHVLIYGAGVIGCEYASIFRGMDVKVDLINTRDRLLAFLDQEMSDSLSYHFWNSGVVIRHNEEYEKIEGCDDGVIMHLKSGKKLKADCLLYANGRTGNTDSLALQNIGLETDSRGQLKVNSMYQTAQPHVYAVGDVIGYPSLASAAYDQGRIAAQALVKGEATAHLIEDIPTGIYTIPEISSVGKTEQQLTAMKVPYEVGRAQFKHLARAQIVGMNVGTLKILFHRETKEILGIHCFGERAAEIIHIGQAIMEQKGGGNTIEYFVNTTFNYPTMAEAYRVAALNGLNRLF
total protein half-life in vivo [1]: 4.47 ± 0.55 h | total protein half-life in vivo [2]: 3.95 ± 0.2 h | total protein half-life in vivo [3]: 4.17 ± 0.28 h | total protein half-life in vivo [4]: 3.85 ± 0.34 h | total protein half-life in vivo [5]: 4.01 ± 0.21 h | total protein half-life in vivo [6]: 2.74 ± 0.36 h | total protein half-life in vivo [7]: 6.09 ± 0.52 h | total protein half-life in vivo [8]: 10.5 ± 0.61 h | total protein half-life in vivo [9]: 4.46 ± 0.093 h | total protein half-life in vivo [10]: 6.87 ± 0.64 h | total protein half-life in vivo [11]: 6.15 ± 0.82 h | total protein half-life in vivo [12]: 12.2 ± 0.42 h

MKKRHLLSLLALGISTACYGETYPAPIGPSQSDFGGVGLLQTPTARMAREGELSLNYRDNDQYRYYSASVQLFPWLETTLRYTDVRTRQYSSVEAFSGDQTYKDKAFDLKLRLWEESYWLPQVAVGARDIGGTGLFDAEYLVASKAWGPFDFTLGLGWGYLGTSGNVKNPLCSASDKYCYRDNSYKQAGSIDGSQMFHGPASLFGGVEYQTPWQPLRLKLEYEGNNYQQDFAGKLEQKSKFNVGAIYRVTDWADVNLSYERGNTFMFGVTLRTNFNDLRPSYNDNARPQYQPQPQDAILQHSVVANQLTLLKYNAGLADPQIQAKGDTLYVTGEQVKYRDSREGIIRANRIVMNDLPDGIKTIRITENRLNMPQVTTETDVASLKNHLAGEPLGHETTLAQKRVEPVVPQSTEQGWYIDKSRFDFHIDPVLNQSVGGPENFYMYQLGVMGTADLWLTDHLLTTGSLFANLANNYDKFNYTNPPQDSHLPRVRTHVREYVQNDVYVNNLQANYFQHLGNGFYGQVYGGYLETMFGGAGAEVLYRPLDSNWAFGLDANYVKQRDWRSAKDMMKFTDYSVKTGHLTAYWTPSFAQDVLVKASVGQYLAGDKGGTLEIAKRFDSGVVVGGYATITNVSKEEYGEGDFTKGVYVSVPLDLFSSGPTRSRAAIGWTPLTRDGGQQLGRKFQLYDMTSDRSVNFR
total protein half-life in vivo [1]: 5.44 h | total protein half-life in vivo [4]: 6.75 ± 0.42 h | total protein half-life in vivo [5]: 5.88 ± 0.37 h | total protein half-life in vivo [8]: 12.6 h | total protein half-life in vivo [10]: 11.6 h

MGNNLMQTDLSVWGMYQHADIVVKCVMIGLILASVVTWAIFFSKSVEFFNQKRRLKREQQLLAEARSLNQANDIAADFGSKSLSLHLLNEAQNELELSEGSDDNEGIKERTSFRLERRVAAVGRQMGRGNGYLATIGAISPFVGLFGTVWGIMNSFIGIAQTQTTNLAVVAPGIAEALLATAIGLVAAIPAVVIYNVFARQIGGFKAMLGDVAAQVLLLQSRDLDLEASAAAHPVRVAQKLRAG [P0ABU7]
total protein half-life in vivo [1]: 6.15 ± 0.21 h | total protein half-life in vivo [2]: 6.38 ± 2.2 h | total protein half-life in vivo [5]: 1.58 ± 1 h | total protein half-life in vivo [6]: 1.68 ± 0.17 h | total protein half-life in vivo [7]: 1.99 h | total protein half-life in vivo [8]: 3.22 h | total protein half-life in vivo [11]: 1.38 h | total protein half-life in vivo [12]: 3.56 h

MKALHFGAGNIGRGFIGKLLADAGIQLTFADVNQVVLDALNARHSYQVHVVGETEQVDTVSGVNAVSSIGDDVVDLIAQVDLVTTAVGPVVLERIAPAIAKGQVKRKEQGNESPLNIIACENMVRGTTQLKGHVMNALPEDAKAWVEEHVGFVDSAVDRIVPPSASATNDPLEVTVETFSEWIVDKTQFKGALPNIPGMELTDNLMAFVERKLFTLNTGHAITAYLGKLAGHQTIRDAILDEKIRAVVKGAMEESGAVLIKRYGFDADKHAAYIQKILGRFENPYLKDDVERVGRQPLRKLSAGDRLIKPLLGTLEYGLPHKNLIEGIAAAMHFRSEDDPQAQELAALIADKGPQAALAQISGLDANSEVVSEAVTAYKAMQ
total protein half-life in vivo [1]: 5.84 ± 2 h | total protein half-life in vivo [2]: 4.85 ± 0.21 h | total protein half-life in vivo [3]: 5.32 ± 0.44 h | total protein half-life in vivo [4]: 4.91 ± 0.1 h | total protein half-life in vivo [5]: 4.6 ± 0.39 h | total protein half-life in vivo [7]: 6.18 ± 0.63 h | total protein half-life in vivo [8]: 10.8 ± 1.2 h | total protein half-life in vivo [9]: 4.86 ± 0.35 h | total protein half-life in vivo [10]: 8.39 ± 0.13 h | total protein half-life in vivo [11]: 6.02 ± 0.068 h | total protein half-life in vivo [12]: 11.6 ± 0.34 h
